From patent publication US20260108618A1

Columns and labels:
Assay in all cases: cell-based or functional assay
[1] = target: neuraminidase of influenza B/Malaysia/2506/2004 (Victoria) (Influenza B virus)
[2] = target: Neuraminidase of influenza B/Phuket/3073/2013 (Yamagata) (influenza B virus B/Phuket/3073/2013 (Yamagata))
[3] = target: neuraminidase of influenza B/Florida/4/2006 (Yamagata) (Influenza B virus)
[4] = target: neuraminidase of influenza A/Hong Kong/1/1968 (H3N2) (Influenza A virus) (UniProt Q91MA2)
[5] = target: Neuraminidase of influenza B/Washington/02/2019 (Victoria) (influenza B virus B/Washington/02/2019 (Victoria))
[6] = target: Neuraminidase of influenza A/Hong Kong/2671/2019 (H3N2) (influenza A virus A/Hong Kong/2671/2019 (H3N2))
[7] = target: neuraminidase of influenza A/CA/7/2009 (H1N1pdm) (Influenza A virus)
[8] = target: Neuraminidase of influenza A/Hawaii/70/2019 (H1N1)pdm09 (influenza A virus A/Hawaii/70/2019 (H1N1)pdm09)

neuraminidase of influenza A/Hong Kong/1/1968 (H3N2) (Influenza A virus), sequence (Q91MA2 whole entry): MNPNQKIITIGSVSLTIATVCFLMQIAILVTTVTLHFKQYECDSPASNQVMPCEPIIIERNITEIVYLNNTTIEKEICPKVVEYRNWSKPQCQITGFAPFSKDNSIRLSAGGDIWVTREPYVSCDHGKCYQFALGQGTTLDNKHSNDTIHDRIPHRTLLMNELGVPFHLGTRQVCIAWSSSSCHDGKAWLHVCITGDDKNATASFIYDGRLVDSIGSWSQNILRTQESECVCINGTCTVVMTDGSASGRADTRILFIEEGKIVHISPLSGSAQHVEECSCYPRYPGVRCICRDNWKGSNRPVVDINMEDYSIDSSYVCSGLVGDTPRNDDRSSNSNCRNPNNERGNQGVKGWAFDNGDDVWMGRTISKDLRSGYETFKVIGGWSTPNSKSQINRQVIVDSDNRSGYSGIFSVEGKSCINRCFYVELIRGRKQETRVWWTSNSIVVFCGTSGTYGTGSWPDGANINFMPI

hIgG1 Fc (from UniProt P01857 84-329)
> 1 µM: enzyme-linked lectin assay (ELLA) IC50, fetuin substrate, virus [1] | enzyme-linked lectin assay (ELLA) (IC50), fetuin substrate, live virus [2] | enzyme-linked lectin assay (ELLA) IC50, fetuin substrate, virus [3] | enzyme-linked lectin assay (ELLA) IC50, fetuin substrate, virus [4] | enzyme-linked lectin assay (ELLA) (IC50), fetuin substrate, live virus [5] | enzyme-linked lectin assay (ELLA) (IC50), fetuin substrate, live virus [6] | enzyme-linked lectin assay (ELLA) IC50, fetuin substrate, virus [7] | enzyme-linked lectin assay (ELLA) (IC50), fetuin substrate, live virus [8]
